Data from the supplement of paper PMC10567573.

B1: KRT13 (parent)
chain: KTIEELRDKILTATIENNRVILEI
B2: BTBD1 (parent)
chain: FVLGKGRGAAAAGGPQRIPAHRFV

Variants of: B1
Assay: protein stability index of a GFP-peptide fusion (GPS, HEK-293T) (PSI 1-6); higher = more stable
Details: c terminus: a fixed tail appended
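Note: lentivirally expressed fusions sorted by FACS into six bins by GFP to DsRed ratio, PSI derived from sequencing read proportions per bin multiplied by bin number.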

Variant	protein stability index
KTIEELRDKILTATIENNRVILEQ [I24Q]	2.44
KTIEELRDKILTATIENNRVILER [I24R]	1.98
KTIEELRDKILTATIENNRVILEL [I24L]	3.35
KTIEELRDKILTATIENNRVILED [I24D]	3.09
KTIEELRDKILTATIENNRVILEN [I24N]	2.64
KTIEELRDKILTATIENNRVILET [I24T]	1.73
KTIEELRDKILTATIENNRVILEF [I24F]	3
KTIEELRDKILTATIENNRVILEP [I24P]	3.4
KTIEELRDKILTATIENNRVILEC [I24C]	2.44
KTIEELRDKILTATIENNRVILEG [I24G]	2.63
KTIEELRDKILTATIENNRVILEA [I24A]	2.65
KTIEELRDKILTATIENNRVILEK [I24K]	3.08
KTIEELRDKILTATIENNRVILES [I24S]	1.92
KTIEELRDKILTATIENNRVILEY [I24Y]	2.16
KTIEELRDKILTATIENNRVILEV [I24V]	2.97
KTIEELRDKILTATIENNRVILEM [I24M]	1.9
KTIEELRDKILTATIENNRVILEH [I24H]	1.93
KTIEELRDKILTATIENNRVILEW [I24W]	2.09
KTIEELRDKILTATIENNRVILEE [I24E]	2.65

Variant	protein stability index
KTIEELRDKILTATIENNRVYLEI [I21Y]	2.79
KTIEELRDKILTATIENNRVTLEI [I21T]	1.47
KTIEELRDKILTATIENNRVVLEI [I21V]	2.6
KTIEELRDKILTATIENNRVSLEI [I21S]	1.55
KTIEELRDKILTATIENNRVICEI [L22C]	2.8
KTIEELRDKILTATIENNRVISEI [L22S]	2.1
KTIEELRDKILTATIENNRVIGEI [L22G]	1.8
KTIEELRDKILTATIENNRVIYEI [L22Y]	2.83
KTIEELRDKILTATIENNRVIVEI [L22V]	2.97
KTIEELRDKILTATIENNRVITEI [L22T]	1.93
KTIEELRDKILTATIENNRVIREI [L22R]	2.14
KTIEELRDKILTATIENNRVINEI [L22N]	2.83
KTIEELRDKILTATIENNRVIHEI [L22H]	2.52
KTIEELRDKILTATIENNRVIKEI [L22K]	2.38
KTIEELRDKILTATIENNRVIFEI [L22F]	3.35
KTIEELRDKILTATIENNRVIEEI [L22E]	3.14
KTIEELRDKILTATIENNRVIQEI [L22Q]	2.88
KTIEELRDKILTATIENNRVIAEI [L22A]	2.2
KTIEELRDKILTATIENNRVIDEI [L22D]	2.84

Variant	protein stability index
KTIEELRDKILTATIENNRVIPEI [L22P]	3.33
KTIEELRDKILTATIENNRVIMEI [L22M]	2.2
KTIEELRDKILTATIENNRVILII [E23I]	2.71
KTIEELRDKILTATIENNRVILSI [E23S]	2.78
KTIEELRDKILTATIENNRVILMI [E23M]	3.54
KTIEELRDKILTATIENNRVILWI [E23W]	2.9
KTIEELRDKILTATIENNRVILHI [E23H]	2.05
KTIEELRDKILTATIENNRVILVI [E23V]	3.08
KTIEELRDKILTATIENNRVILDI [E23D]	2.45
KTIEELRDKILTATIENNRVILTI [E23T]	2.79
KTIEELRDKILTATIENNRVILPI [E23P]	2.08
KTIEELRDKILTATIENNRVILYI [E23Y]	2.07
KTIEELRDKILTATIENNRVILKI [E23K]	1.25
KTIEELRDKILTATIENNRVILGI [E23G]	2.06
KTIEELRDKILTATIENNRVILFI [E23F]	4.41
KTIEELRDKILTATIENNRVILAI [E23A]	1.85
KTIEELRDKILTATIENNRVILRI [E23R]	2.55
KTIEELRDKILTATIENNRVILLI [E23L]	2.42
KTIEELRDKILTATIENNRVILQI [E23Q]	2.47

Variants of: B2
Assay: as above
Details: c terminus: a fixed tail appended

Variant	protein stability index
FVLGKGRAAAAAGGPQRIPAHRFV [G8A]	1.33
FVLGKGRDAAAAGGPQRIPAHRFV [G8D]	2.13
FVLGKGRHAAAAGGPQRIPAHRFV [G8H]	2.31
FVLGKGRNAAAAGGPQRIPAHRFV [G8N]	1.62
FVLGKGRIAAAAGGPQRIPAHRFV [G8I]	2.26
FVLGKGRPAAAAGGPQRIPAHRFV [G8P]	1.55
FVLGKGRKAAAAGGPQRIPAHRFV [G8K]	2.02
FVLGKGREAAAAGGPQRIPAHRFV [G8E]	2.01
FVLGKGRFAAAAGGPQRIPAHRFV [G8F]	1.5
FVLGKGRLAAAAGGPQRIPAHRFV [G8L]	1.69
FSLGKGRGAAAAGGPQRIPAHRFV [V2S]	3.35
FCLGKGRGAAAAGGPQRIPAHRFV [V2C]	2.18
FMLGKGRGAAAAGGPQRIPAHRFV [V2M]	2.21
FWLGKGRGAAAAGGPQRIPAHRFV [V2W]	1.76
FYLGKGRGAAAAGGPQRIPAHRFV [V2Y]	1.8
FFLGKGRGAAAAGGPQRIPAHRFV [V2F]	1.67
FKLGKGRGAAAAGGPQRIPAHRFV [V2K]	2.85
FTLGKGRGAAAAGGPQRIPAHRFV [V2T]	2.35
FILGKGRGAAAAGGPQRIPAHRFV [V2I]	1.68

Variant	protein stability index
FDLGKGRGAAAAGGPQRIPAHRFV [V2D]	2.88
FGLGKGRGAAAAGGPQRIPAHRFV [V2G]	2.74
FALGKGRGAAAAGGPQRIPAHRFV [V2A]	1.99
FQLGKGRGAAAAGGPQRIPAHRFV [V2Q]	3
FHLGKGRGAAAAGGPQRIPAHRFV [V2H]	2.22
FLLGKGRGAAAAGGPQRIPAHRFV [V2L]	1.97
FNLGKGRGAAAAGGPQRIPAHRFV [V2N]	3.23
FELGKGRGAAAAGGPQRIPAHRFV [V2E]	3.38
FVKGKGRGAAAAGGPQRIPAHRFV [L3K]	2.2
FVSGKGRGAAAAGGPQRIPAHRFV [L3S]	3
FVDGKGRGAAAAGGPQRIPAHRFV [L3D]	2.2
FVGGKGRGAAAAGGPQRIPAHRFV [L3G]	1.61
FVFGKGRGAAAAGGPQRIPAHRFV [L3F]	1.61
FVQGKGRGAAAAGGPQRIPAHRFV [L3Q]	1.3
FVIGKGRGAAAAGGPQRIPAHRFV [L3I]	1.68
FVYGKGRGAAAAGGPQRIPAHRFV [L3Y]	1.79
FVMGKGRGAAAAGGPQRIPAHRFV [L3M]	1.92
FVWGKGRGAAAAGGPQRIPAHRFV [L3W]	1.14
